Four molecules from patent US20100183542A1, “Synergism Between Activated Immune Cells and Conventional Cancer Therapies” (UNIVERSITY OF SOUTH ALABAMA, priority 2006, published 2010) can be followed below.

The subject of series [1] is Hela cells. Put plainly: Hela cells pre-sensitized with cytokines for 2 days, fresh medium 3 days, WST-1 on day 5 (Experiments 9, 10). Type of series: cell-based. The note with it: for effect on the maximum cytotoxic effect of IFN-γ: Experiment 9: in combination with IFN-γ. On the procedure:
Hela cells were pre-sensitized with IFN-γ, and IFN-γ in combination with other cytokines for 2 days. The pre-sensitized Hela cells were then cultured with fresh complete RPMI 1640 for another 3 days. Cell viability was measured by WST-1 assay on day 5.
The pre-sensitized Hela cells were cultured with fresh complete RPMI 1640 for another 3 days. Cell viability was measured by WST-1 assay on day 5.
(In general: Tetrazolium dyes change colour on reduction, which living cells bring about.)

Series [2] deals with Hela cells. Put plainly: Hela cells pre-sensitized with cytokines, 4 Gy gamma radiation, WST-1 on day 5 (Experiments 7, 8, 11, 12, 13). Type of series: cell-based. The procedure:
Hela cells were pre-sensitized for 2 days with each cytokine listed on FIG. 29. The pre-sensitized Hela cells were thereafter trypsinzed, washed, and irradiated with 4 Gy of gamma radiation. The irradiated cells were plated in 96-well plate at 5000 cells per well in 200 μl of complete medium. Cell viability was measured by WST-1 reagent on day 5.
Hela cells were pre-sensitized for 2 days by individual cytokines, combinations or all cytokines. The pre-sensitized Hela cells were thereafter harvested, washed, and irradiated with 4 Gy of gamma radiation. The irradiated cells were plated in 96-well plate at 5000 cells per well in 200 μl of RPMI 1640 medium. Cell viability was measured by WST-1 assay on day 5.
Hela cells were pre-sensitized with various combinations of cytokines identified in FIG. 33. The pre-sensitized Hela cells were made single suspension and irradiated by 4 Gy of gamma radiation. The irradiated cells were plated in 96-well plate at 5000 cells per well in 200 μl RPMI 1640 medium. Cell viability was measured by WST-1 assay on day 5.
Hela cells were pre-sensitized for 2 days with CD4+ T cells, a combination of [IFN-γ/TNF-α/IL-2/Il-6], or a combination of all cytokines. The pre-sensitized cells were thereafter placed into a single suspension and irradiated by 4 Gy of gamma radiation. The irradiated cells were plated in 96-well plate at 5000 cells per well in 200 μl RPMI 1640 medium. Cell viability was measured by WST-1 assay on day 5.
Another experiment was performed similar to experiment 16, except that [IFN-γ/TNF-α] was used instead of the combination of [IFN-γ/TNF-α/Il-2/Il-6].

Regarding GM-CSF: cytokine, in the series on Hela cells [1], the “effect on the maximum cytotoxic effect of IFN-γ” value is “added effect”. On the same count and under the same terms, for TNF-α the value was “added effect”. As to IFN-γ: cytokine, in the series on Hela cells [2] (Experiment 7: each cytokine 2 days, 4 Gy), the “contribution to enhanced effect of gamma irradiation” value is given as “major factor contributing to the enhanced effect of gamma irradiation”. The “synergistic effect with gamma radiation” value in the series with Hela cells [2] (Experiment 11: 4 Gy) is “Synergistic effect”.

B1: IFN-γ: cytokine (protein, UniProt P01579 24-161, looked up)
Interferon gamma: QDPYVKEAENLKKYFNAGHSDVADNGTLFLGILKNWKEESDRKIMQSQIVSFYFKLFKNFKDDQSIQKSVETIKEDMNVKFFNSNKKKRDDFEKLTNYSVTDLNVQRKAIHELIQVMAELSPAAKTGKRKRSQMLFRG
Consider B1, for which the contribution to cytotoxicity entry with Hela cells [1] (Experiment 9: 2 days pre-sensitization, 3 days fresh medium) is reported as “contributes to enhance cytotoxicity of gamma irradiation”. Also, in the series on Hela cells [2] (Experiment 8: individual cytokines, combinations or all cytokines 2 days, 4 Gy), the “contribution to cytotoxicity of gamma irradiation” value is reported as “contributes to enhance cytotoxicity of gamma irradiation”.
